The results in this text go back to paper PMC6123443, “Selective Pressure for Biofilm Formation in Bacillus subtilis: Differential Effect of Mutations in the Master Regulator SinR on Bistability” (mBio, 2018).

One may read the stoichiometry N as the number of molecules, sites or subunits per partner or assembly. One may read the Kd as the concentration at which binding is half-saturated.

The labels stand for the following.
B1: SinR wild type (natural protein, B. subtilis)
chain: MIGQRIKQYRKEKGYSLSELAEKAGVAKSYLSSIERNLQTNPSIQFLEKVSAVLDVSVHTLLDEKHETEYDGQLDSEWEKLVRDAMTSGVSKKQFREFLDYQKWRKSQKEE
notes: SinR, master regulator of biofilm formation, Bacillus subtilis; sinR allele amplified from chromosomal DNA with primer pair G8/G10 and cloned between NdeI and EcoRI of pET24a; monomer printed as 12.85 kDa; The printed monomer mass of 12.85 kDa fits the whole protein of 111 residues; No tag is named and purification was by heparin and size exclusion; also called wild-type SinR; source: E. coli …
B2: SinR^W104R (natural protein, B. subtilis)
chain: B1 chain with W104R
notes: SinR, Bacillus subtilis, with W104R; allele amplified from chromosomal DNA of the suppressor mutant with primer pair G8/G10, cloned in pET24a (NdeI/EcoRI); Spontaneous suppressor allele isolated in the laboratory from a ymdB mutant; source: E. coli BL21(DE3), purified (heparin Sepharose, size exclusion)
B3: SinR^W104L (natural protein, B. subtilis)
chain: B1 chain with W104L
notes: SinR, Bacillus subtilis, with W104L; allele amplified from chromosomal DNA of the suppressor mutant with primer pair G8/G10, cloned in pET24a (NdeI/EcoRI); Spontaneous suppressor allele isolated in the laboratory from a ymdB mutant; source: E. coli BL21(DE3), purified (heparin Sepharose, size exclusion)
B4: SinR^S43A (natural protein, B. subtilis)
chain: B1 chain with S43A
notes: SinR, Bacillus subtilis, with S43A; allele amplified from chromosomal DNA of the suppressor mutant with primer pair G8/G10, cloned in pET24a (NdeI/EcoRI); Spontaneous suppressor allele isolated in the laboratory from a ymdB mutant; source: E. coli BL21(DE3), purified (heparin Sepharose, size exclusion)
B5: SinR^K28T (natural protein, B. subtilis)
chain: B1 chain with K28T
notes: SinR, Bacillus subtilis, with K28T; allele amplified from chromosomal DNA of the suppressor mutant with primer pair G8/G10, cloned in pET24a (NdeI/EcoRI); Spontaneous suppressor allele isolated in the laboratory from a ymdB mutant; source: E. coli BL21(DE3), purified (heparin Sepharose, size exclusion)
B6: SinR^A85T (natural protein, B. subtilis)
chain: B1 chain with A85T
notes: SinR, Bacillus subtilis, with A85T; allele amplified from chromosomal DNA of the suppressor mutant with primer pair G8/G10, cloned in pET24a (NdeI/EcoRI); Spontaneous suppressor allele isolated in the laboratory from a ymdB mutant; source: E. coli BL21(DE3), purified (heparin Sepharose, size exclusion)
B7: SinI (natural protein, B. subtilis, UniProt P23308 1-57, looked up)
chain: MKNAKQEHFELDQEWVELMVEAKEANISPEEIRKYLLLNKKSAHPGPAARSHTVNPF
notes: SinI, antagonist of SinR, Bacillus subtilis; sinI gene amplified by PCR with primer pair G6/G7 and cloned into plasmid pC2; also called SinR antagonist SinI; source: E. coli BL21(DE3), purified (ANX ion exchange, size exclusion)
B8: eps operator inverted-repeat SinR box duplex, 21 bp (FAM1721/C-1723) (dsDNA)
DNA 1: ATTGTTCTCTAAAGAGAACTT
DNA 2: AAGTTCTCTTTAGAGAACAAT

Changes are numbered by the printed parent chain. In names and notes the source's numbering stands.

Data set [1] deals with the molecule itself. Nature of the data set: SEC-MALS; SinR proteins at 5 mg/ml (equivalent to 400 µM), 150 µl on Superdex 200 Increase 10/300 GL, 50 mM Tris-HCl pH 8.0, 250 mM NaCl, 0.5 ml/min; refractive index at 25°C. For orientation: SEC sorts molecules by how far they enter the pores of the column.
The data set “SinR^S43A” deals with B4. In words: fluorescence polarisation; displacement of fluorescein-labelled 21-bp operator DNA (10 nM) from 5 µM SinR by SinI titrated from 50 µM to 10 nM; 10 mM Tris-HCl pH 8.0, 100 mM NaCl, 1 mM EDTA; qualitative. Conditions: both partners purified. (In general: Polarisation of emitted light reports the rotation of a fluorescent probe.)
The target of the data set “SinR^A85T” is B6. Described as above. Conditions: both partners purified.
In the data set “SinR^W104L” the target is B3. Described as above. The conditions noted are these: both partners purified.
The data set “SinR^W104R” has as its target B2. The description is as above. The conditions noted are these: both partners purified.
Another data set concerns the target T1, SinR K28T (Bacillus subtilis, UniProt P06533 1-111, K28T).
T1 sequence: B1 chain with K28T
In words: fluorescence polarization; no polarization change up to 20 uM protein; 10 mM Tris-HCl pH 8.0, 100 mM NaCl, 1 mM EDTA; 10 nM labeled duplex, SinR diluted from 20 uM; temperature not stated. Conditions: protein: recombinant; tags: none (pET24a, native stop codon in primer G10); chain copies: 4; label: 5'-fluorescein (FAM) on strand 1; blunt.

The target of the next data set is T2, SinR wild type (Bacillus subtilis, UniProt P06533 1-111).
T2 sequence: B1 chain
Nature of the data set: fluorescence polarization; 10 mM Tris-HCl pH 8.0, 100 mM NaCl, 1 mM EDTA; 10 nM labeled duplex, SinR diluted from 20 uM; temperature not stated. The conditions noted are these: protein: recombinant; tags: none (pET24a, native stop codon in primer G10); chain copies: 4; label: 5'-fluorescein (FAM) on strand 1; blunt.

In another data set the target is T3, SinR W104R (Bacillus subtilis, UniProt P06533 1-111, W104R).
T3 sequence: B1 chain with W104R
Described as above. The conditions noted are these: protein: recombinant; tags: none (pET24a, native stop codon in primer G10); chain copies: 2; label: 5'-fluorescein (FAM) on strand 1; blunt.

The next data set addresses T4, SinR W104L (Bacillus subtilis, UniProt P06533 1-111, W104L).
T4 sequence: B1 chain with W104L
The description is as above. Conditions: protein: recombinant; tags: none (pET24a, native stop codon in primer G10); chain copies: 2; label: 5'-fluorescein (FAM) on strand 1; blunt.

A further data set deals with T5, SinR S43A (Bacillus subtilis, UniProt P06533 1-111, S43A).
T5 sequence: B1 chain with S43A
The data set is described as above. Conditions: protein: recombinant; tags: none (pET24a, native stop codon in primer G10); chain copies: 4; label: 5'-fluorescein (FAM) on strand 1; blunt.

A further data set concerns the target T6, SinR A85T (Bacillus subtilis, UniProt P06533 1-111, A85T).
T6 sequence: B1 chain with A85T
The data set is described as above. Conditions: protein: recombinant; tags: none (pET24a, native stop codon in primer G10); chain copies: 4; label: 5'-fluorescein (FAM) on strand 1; blunt.

For the molecule B1, the “stoichiometry N” value in data set [1] came out at 4.
The same measure, in the same setting: under B2 stands 2; under B3, 2; under B4, 4.
In the case of B5, the “stoichiometry N” value in data set [1] is 4.
Still for that read-out and setting: the value for B6 was 4.
In the case of B7, the binding result with SinR^S43A and in the data set with SinR^A85T was “binds” throughout. In addition, the “percent of SinR-bound DNA released by a 10-fold molar excess of SinI” value with SinR^W104L and with SinR^W104R was about 60% each time.
Regarding B8, the binding result in the data set with SinR K28T was “no binding”. The Kd worked out at 179 ± 24 nM in the data set with SinR wild type; 2580 ± 545 nM with SinR W104R; 1900 ± 298 nM in the data set with SinR W104L; 350 ± 81 nM with SinR S43A; 852 ± 39 nM with SinR A85T.
